The values below come from patent US20190153406.

Data set [1] addresses IRS1 (insulin receptor substrate-1), species not stated.

Sequence of IRS1 (insulin receptor substrate-1), species not stated (P35568 whole entry): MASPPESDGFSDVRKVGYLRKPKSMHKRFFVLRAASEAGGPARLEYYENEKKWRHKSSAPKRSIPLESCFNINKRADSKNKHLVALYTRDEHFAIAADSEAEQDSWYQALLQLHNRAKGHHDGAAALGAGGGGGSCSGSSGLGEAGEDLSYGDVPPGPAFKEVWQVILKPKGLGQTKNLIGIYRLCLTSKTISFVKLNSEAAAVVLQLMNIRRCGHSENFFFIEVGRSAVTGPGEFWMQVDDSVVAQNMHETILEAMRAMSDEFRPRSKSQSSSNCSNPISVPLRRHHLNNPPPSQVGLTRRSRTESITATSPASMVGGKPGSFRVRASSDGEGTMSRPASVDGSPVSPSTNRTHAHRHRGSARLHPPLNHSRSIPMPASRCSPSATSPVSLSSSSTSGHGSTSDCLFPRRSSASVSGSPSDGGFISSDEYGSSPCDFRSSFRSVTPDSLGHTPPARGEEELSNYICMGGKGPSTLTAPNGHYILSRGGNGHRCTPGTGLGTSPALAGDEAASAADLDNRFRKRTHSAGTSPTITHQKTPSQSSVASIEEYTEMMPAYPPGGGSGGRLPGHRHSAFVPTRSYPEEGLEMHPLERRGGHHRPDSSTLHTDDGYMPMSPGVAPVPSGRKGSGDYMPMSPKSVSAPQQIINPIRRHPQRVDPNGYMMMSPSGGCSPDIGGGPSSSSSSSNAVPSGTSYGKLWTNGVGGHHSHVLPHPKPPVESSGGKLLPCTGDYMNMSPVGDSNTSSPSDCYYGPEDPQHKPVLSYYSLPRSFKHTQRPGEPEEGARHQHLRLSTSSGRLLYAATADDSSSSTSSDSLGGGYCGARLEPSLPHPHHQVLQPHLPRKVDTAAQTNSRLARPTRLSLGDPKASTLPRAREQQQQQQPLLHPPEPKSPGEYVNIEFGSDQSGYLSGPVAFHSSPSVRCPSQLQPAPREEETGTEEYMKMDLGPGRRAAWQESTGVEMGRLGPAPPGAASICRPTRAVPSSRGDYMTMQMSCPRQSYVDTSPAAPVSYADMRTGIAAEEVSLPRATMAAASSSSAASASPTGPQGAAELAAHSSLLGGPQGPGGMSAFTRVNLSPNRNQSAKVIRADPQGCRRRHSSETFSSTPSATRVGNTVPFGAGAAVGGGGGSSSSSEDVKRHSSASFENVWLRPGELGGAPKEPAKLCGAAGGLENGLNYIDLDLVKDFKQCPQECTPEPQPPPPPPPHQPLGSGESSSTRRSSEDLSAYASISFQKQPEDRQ

B1: human wild-type MG53 (protein)
chain: MSAAPGLLHQELSCPLCLQLFDAPVTAECGHSFCRACLGRVAGEPAADGTVLCPCCQAPTRPQALSTNLQLARLVEGLAQVPQGHCEEHLDPLSIYCEQDRALVCGVCASLGSHRGHRLLPAAEAHARLKTQLPQQKLQLQEACMRKEKSVAVLEHQLVEVEETVRQFRGAVGEQLGKMRVFLAALEGSLDREAERVRGEAGVALRRELGSLNSYLEQLRQMEKVLEEVADKPQTEFLMKYCLVTSRLQKILAESPPPARLDIQLPIISDDFKFQVWRKMFRALMPALEELTFDPSSAHPSLVVSSSGRRVECSEQKAPPAGEDPRQFDKAVAVVAHQQLSEGEHYWEVDVGDKPRWALGVIAAEAPRRGRLHAVPSQGLWLLGLREGKILEAHVEAKEPRALRSPERRPTRIGLYLSFGDGVLSFYDASDADALVPLFAFHERLPRPVYPFFDVCWHDKGKNAQPLLLVGPEGAEA
With B1, in data set [1], the “MG53-mediated substrate degradation, Western Blot, HEK293T co-expression (FIG. 17)” value is “human or mouse wild-type MG53 can significantly mediate IRS1 degradation”.

B2: human MG53 S255A mutant (protein)
chain: MSAAPGLLHQELSCPLCLQLFDAPVTAECGHSFCRACLGRVAGEPAADGTVLCPCCQAPTRPQALSTNLQLARLVEGLAQVPQGHCEEHLDPLSIYCEQDRALVCGVCASLGSHRGHRLLPAAEAHARLKTQLPQQKLQLQEACMRKEKSVAVLEHQLVEVEETVRQFRGAVGEQLGKMRVFLAALEGSLDREAERVRGEAGVALRRELGSLNSYLEQLRQMEKVLEEVADKPQTEFLMKYCLVTSRLQKILAEAPPPARLDIQLPIISDDFKFQVWRKMFRALMPALEELTFDPSSAHPSLVVSSSGRRVECSEQKAPPAGEDPRQFDKAVAVVAHQQLSEGEHYWEVDVGDKPRWALGVIAAEAPRRGRLHAVPSQGLWLLGLREGKILEAHVEAKEPRALRSPERRPTRIGLYLSFGDGVLSFYDASDADALVPLFAFHERLPRPVYPFFDVCWHDKGKNAQPLLLVGPEGAEA
With B2, in data set [1], the “degradation of IRS1, Western Blot, HEK293T co-expression (FIG. 17)” value is reported as “human MG53 S255A mutant can only mediate about 10% degradation of IRS1”.

B3: mouse MG53 S255A mutant (protein)
chain: MSAAPGLLRQELSCPLCLQLFDAPVTAECGHSFCRACLIRVAGEPAADGTVACPCCQAPTRPQALSTNLQLSRLVEGLAQVPQGHCEEHLDPLSIYCEQDRTLVCGVCASLGSHRGHRLLPAAEAQARLKTQLPQQKMQLQEACMRKEKTVAVLEHQLVEVEETVRQFRGAVGEQLGKMRMFLAALESSLDREAERVRGDAGVALRRELSSLNSYLEQLRQMEKVLEEVADKPQTEFLMKFCLVTSRLQKILSEAPPPARLDIQLPVISDDFKFQVWKKMFRALMPALEELTFDPSSAHPSLVVSSSGRRVECSDQKAPPAGEDTRQFDKAVAVVAQQLLSQGEHYWEVEVGDKPRWALGVMAADASRRGRLHAVPSQGLWLLGLRDGKILEAHVEAKEPRALRTPERPPARIGLYLSFADGVLAFYDASNPDVLTPIFSFHERLPGPVYPIFDVCWHDKGKNAQPLLLVGPEQEQA
For B3, the “degradation of IRS1, Western Blot, HEK293T co-expression (FIG. 16)” value in data set [1] was “mouse MG53 S255A mutant can only mediate about 40% degradation of IRS1”. For the same protein, in the data set with insulin receptor IR, the “degradation of IRβ, Western Blot, HEK293T co-expression (FIG. 16B)” value was “mouse MG53-D-RING truncated mutant and mouse MG53 S255A mutant can hardly mediate IRβ degradation”; the “degradation of precursor protein of IRβ, HEK293T co-expression” value is “mouse MG53-D-RING truncated mutant and mouse MG53 S255A mutant almost completely inhibited MG53-mediated degradation”.

B4: mouse wild-type MG53 (protein)
chain: MSAAPGLLRQELSCPLCLQLFDAPVTAECGHSFCRACLIRVAGEPAADGTVACPCCQAPTRPQALSTNLQLSRLVEGLAQVPQGHCEEHLDPLSIYCEQDRTLVCGVCASLGSHRGHRLLPAAEAQARLKTQLPQQKMQLQEACMRKEKTVAVLEHQLVEVEETVRQFRGAVGEQLGKMRMFLAALESSLDREAERVRGDAGVALRRELSSLNSYLEQLRQMEKVLEEVADKPQTEFLMKFCLVTSRLQKILSESPPPARLDIQLPVISDDFKFQVWKKMFRALMPALEELTFDPSSAHPSLVVSSSGRRVECSDQKAPPAGEDTRQFDKAVAVVAQQLLSQGEHYWEVEVGDKPRWALGVMAADASRRGRLHAVPSQGLWLLGLRDGKILEAHVEAKEPRALRTPERPPARIGLYLSFADGVLAFYDASNPDVLTPIFSFHERLPGPVYPIFDVCWHDKGKNAQPLLLVGPEQEQA
Turning to B4, the “MG53-mediated substrate degradation, Western Blot, HEK293T co-expression (FIG. 16)” value in data set [1] is reported as “human or mouse wild-type MG53 can significantly mediate IRS1 degradation”. In the data set with insulin receptor IR, the “degradation of IRβ, Western Blot, HEK293T co-expression (FIG. 16B)” value is “Mouse wild-type MG53 can mediate about 50% degradation of IRβ” and the “degradation of precursor protein of IRβ, HEK293T co-expression” value was “mouse wild-type MG53 can mediate the degradation of precursor protein of IRβ”.
